Test results: the supplement of paper PMC7125110
± gives the standard error. Fewer inactive variants are shown than the library holds.

B1: glmS ribozyme (parent)
chain: AUAAAAGCGCCAGAACUACAGAAAUGUAGUUGACGAGGAGGAGGUUUAUCGAAUUUUCGGCGGAUGCCUCCAAA

Tests used:
Conditions in all cases: with glucosamine-6-phosphate
glucosamine-6-phosphate [1] = variants of: B1; assay: self-cleavage kobs at 40 uM GlcN6P; higher = faster cleavage; RNA array
Outline: (§1)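 Glucosamine-6-phosphate in HEPES/KCl/Mg(OAc)2 buffer, at 40 μM to 10 mM, was flowed over barcoded ribozyme variants transcribed in situ by E. coli RNA polymerase on sequenced MiSeq chips. Tracking was through a hybridised Cy3 probe at 37 °C. kobs, kcat and KM came from exponential decay fits and weighted Michaelis–Menten fits of normalised per-tile medians.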

glucosamine-6-phosphate [2] = variants of: B1; assay: self-cleavage kobs at 10000 uM GlcN6P; higher = faster cleavage; RNA array
Outline: as §1

glucosamine-6-phosphate [3] = variants of: B1; assay: self-cleavage kobs at 160 uM GlcN6P; higher = faster cleavage; RNA array
Outline: as §1

glucosamine-6-phosphate [4] = variants of: B1; assay: self-cleavage kobs at 640 uM GlcN6P; higher = faster cleavage; RNA array
Outline: as §1

glucosamine-6-phosphate [5] = variants of: B1; assay: self-cleavage kobs at 2500 uM GlcN6P; higher = faster cleavage; RNA array
Outline: as §1

Row | Variant | self-cleavage kobs at 40 uM GlcN6P (glucosamine-6-phosphate [1]) | self-cleavage kobs at 10000 uM GlcN6P (glucosamine-6-phosphate [2]) | self-cleavage kobs at 160 uM GlcN6P (glucosamine-6-phosphate [3]) | self-cleavage kobs at 640 uM GlcN6P (glucosamine-6-phosphate [4]) | self-cleavage kobs at 2500 uM GlcN6P (glucosamine-6-phosphate [5])
1 | A6C G32C G60U | < 1e-05 s⁻¹ | < 1e-05 s⁻¹ |  |  | 
2 | G7U G43C | < 1e-05 s⁻¹ |  | < 1e-05 s⁻¹ | < 1e-05 s⁻¹ | 
3 | A42U C50U | < 1e-05 s⁻¹ | < 1e-05 s⁻¹ | < 1e-05 s⁻¹ | < 1e-05 s⁻¹ | < 1e-05 s⁻¹
4 | C8G A14G A33G | < 1e-05 s⁻¹ | < 1e-05 s⁻¹ |  |  | < 1e-05 s⁻¹
5 | U30C G41A A42C C50G | < 1e-05 s⁻¹ | < 1e-05 s⁻¹ |  |  | 
6 | U46C U57A | < 1e-05 s⁻¹ | 5.47e-05 ± 1.8e-05 s⁻¹ |  |  | 
7 | A36C G43A U55A C71U | < 1e-05 s⁻¹ | < 1e-05 s⁻¹ |  | < 1e-05 s⁻¹ | < 1e-05 s⁻¹
8 | G9U G62C | < 1e-05 s⁻¹ | < 1e-05 s⁻¹ | < 1e-05 s⁻¹ |  | 
9 | A15G C70A | 5.87e-05 ± 7.8e-06 s⁻¹ | 0.00111 ± 0.00023 s⁻¹ | 9.45e-05 ± 1.1e-05 s⁻¹ | 0.000211 ± 2.2e-05 s⁻¹ | 0.000382 ± 4e-05 s⁻¹
10 | G41C U45A U57A C61G | < 1e-05 s⁻¹ | < 1e-05 s⁻¹ |  |  | 
11 | C10U A36U U65G | < 1e-05 s⁻¹ |  |  |  | 
12 | C8A A12U | < 1e-05 s⁻¹ | < 1e-05 s⁻¹ |  | < 1e-05 s⁻¹ | < 1e-05 s⁻¹
13 | G43A U49G | < 1e-05 s⁻¹ |  | < 1e-05 s⁻¹ | < 1e-05 s⁻¹ | < 1e-05 s⁻¹
14 | C8U A14U G44U | < 1e-05 s⁻¹ |  |  |  | 
15 | U56C G60U C68U | < 1e-05 s⁻¹ |  |  |  | 
16 | U30G G35A | < 1e-05 s⁻¹ | < 1e-05 s⁻¹ |  |  | < 1e-05 s⁻¹
17 | C34A U54A G62U G63U | < 1e-05 s⁻¹ | < 1e-05 s⁻¹ |  | < 1e-05 s⁻¹ | 
18 | U31C G38A U46G | < 1e-05 s⁻¹ |  |  |  | 
19 | G13A U31A G59C C70A | < 1e-05 s⁻¹ |  |  |  | 
20 | G9U U31A C34U | < 1e-05 s⁻¹ |  | < 1e-05 s⁻¹ |  | 
21 | A42U A48C | < 1e-05 s⁻¹ |  | < 1e-05 s⁻¹ | < 1e-05 s⁻¹ | < 1e-05 s⁻¹
22 | G38C A48U | < 1e-05 s⁻¹ | < 1e-05 s⁻¹ |  |  | 
23 | G38C G60C C70U | < 1e-05 s⁻¹ |  |  |  | 
24 | C10A G41U G44U | < 1e-05 s⁻¹ |  | < 1e-05 s⁻¹ | < 1e-05 s⁻¹ | < 1e-05 s⁻¹
